Measured values: paper PMC6886185, “eIF4A2 drives repression of translation at initiation by Ccr4-Not through purine-rich motifs in the 5′UTR”

Experiments:
eIF4A2 [1] = biological target: T1, eIF4A2 (UniProt Q14240 1-407); test: EMSA; AMP-PNP; bound even under high molar excess of (CAA)6CA; 20 mM Hepes/KOH pH 7.5, 100 (mM) KCl, 1 mM MgCl2, 1 mM AMP-PNP, 1 mM TCEP, 0.1% DMSO, +/-50 uM silvestrol (10 uM in Fig 4a legend), 60 min, 25 C; numeric Kd of; conditions: protein: recombinant; tags: SUMO tag cleaved; label: Dy780; single strand
eIF4A2 [2] = biological target: T1, eIF4A2; test: competition; 20-fold excess; readily displaces pre-bound FAM-(CAA)6CA; 20 mM Hepes/KOH pH 7.5, 100 (mM) KCl, 1 mM MgCl2, 1 mM AMP-PNP, 1 mM TCEP, 0.1% DMSO, +/-50 uM silvestrol (10 uM in Fig 4a legend), 60 min, 25 C; numeric Kd of; conditions: protein: recombinant; tags: SUMO tag cleaved; label: none; single strand
eIF4A2 [3] = biological target: T1, eIF4A2; test: fluorescence anisotropy; 1 mM AMP-PNP, 1 mM Mg2+; 20 mM Hepes/KOH pH 7.5, 100 (mM) KCl, 1 mM MgCl2, 1 mM AMP-PNP, 1 mM TCEP, 0.1% DMSO, +/-50 uM silvestrol (10 uM in Fig 4a legend), 60 min, 25 C; numeric Kd of; conditions: protein: recombinant; tags: SUMO tag cleaved; label: 5' FAM; single strand, unstructured
eIF4A2 [4] = biological target: T1, eIF4A2; test: fluorescence anisotropy; AMP-PNP; 20 mM Hepes/KOH pH 7.5, 100 (mM) KCl, 1 mM MgCl2, 1 mM AMP-PNP, 1 mM TCEP, 0.1% DMSO, +/-50 uM silvestrol (10 uM in Fig 4a legend), 60 min, 25 C; numeric Kd of; conditions: protein: recombinant; tags: SUMO tag cleaved; label: FAM; blunt
eIF4A1 = eIF4A1 (UniProt P60842 1-406); test: as above; conditions: protein: recombinant; tags: SUMO tag cleaved; label: FAM; blunt
Sequence of eIF4A1 (P60842 whole entry): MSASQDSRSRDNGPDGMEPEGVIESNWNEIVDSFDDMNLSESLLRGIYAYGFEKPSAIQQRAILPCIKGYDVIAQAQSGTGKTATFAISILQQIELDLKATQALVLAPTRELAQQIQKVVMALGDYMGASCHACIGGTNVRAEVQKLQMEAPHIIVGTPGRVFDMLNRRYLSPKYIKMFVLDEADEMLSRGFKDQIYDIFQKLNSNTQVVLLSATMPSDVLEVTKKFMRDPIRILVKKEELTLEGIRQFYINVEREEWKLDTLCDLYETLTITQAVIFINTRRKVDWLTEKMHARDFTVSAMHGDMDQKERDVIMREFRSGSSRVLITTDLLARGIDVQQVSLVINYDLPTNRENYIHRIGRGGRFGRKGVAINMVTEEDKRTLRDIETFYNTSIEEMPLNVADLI

T1 sequence (Q14240 whole entry): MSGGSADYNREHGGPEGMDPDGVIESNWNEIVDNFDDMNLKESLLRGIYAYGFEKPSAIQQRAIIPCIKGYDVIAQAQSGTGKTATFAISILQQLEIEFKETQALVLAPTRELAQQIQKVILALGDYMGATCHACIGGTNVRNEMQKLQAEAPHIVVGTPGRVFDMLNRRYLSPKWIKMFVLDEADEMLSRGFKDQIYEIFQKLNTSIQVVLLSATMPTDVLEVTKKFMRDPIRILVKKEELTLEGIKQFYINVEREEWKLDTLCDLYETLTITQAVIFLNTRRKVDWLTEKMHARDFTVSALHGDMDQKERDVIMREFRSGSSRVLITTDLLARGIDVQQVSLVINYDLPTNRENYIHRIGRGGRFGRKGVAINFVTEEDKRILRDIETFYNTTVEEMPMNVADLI

AGAGAGAGAGAGAGAGAGAG (ssRNA) [Dy780-(AG)10 ssRNA]
binding result (eIF4A2 [1]): binds

AGAGAGAGAGAGAGAGAGAG (ssRNA) [(AG)10 unlabelled competitor]
binding result (eIF4A2 [2]): binds

AGAGAGAGAGAGAGAGAGAG (ssRNA) [(AG)10 ssRNA]
binding result (eIF4A2 [3]): binds

B1: (AG)10:(CU)10 dsRNA (dsRNA)
RNA 1: AGAGAGAGAGAGAGAGAGAG
RNA 2: CUCUCUCUCUCUCUCUCUCU
binding result (eIF4A2 [4]): no binding | binding result (eIF4A1): no binding
